# Assay results: the supplement of paper PMC9732359
# ± gives the uncertainty stated by the source.
# Assay: protein stability index of a GFP-peptide fusion (yeast GPS) (PSI 1-4); higher = more stable; sorted into four equal gates, so the index is relative within each strain
# How it was run: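 The protein stability index combines read frequencies across sorting gates, each weighted by its gate number and then summed. To obtain those frequencies, a pooled yeast library of GFP fusions to tiled 17-residue yeast protein peptides, on a plasmid also expressing Cherry, was grown to mid-log phase in leucine-free medium. The cells were sorted into four equal gates by GFP/Cherry ratio before plasmid amplification by PCR and Illumina sequencing.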
Sequence,protein stability index (doa10∆),protein stability index (pdr5∆),protein stability index (san1∆),protein stability index (ubr1∆)
LIQDLLHRLTPKNVKGE [RPN1],3.44 ± 0.25,3.27 ± 0.11,3.51 ± 0.21,3.01 ± 0.14
NSSKYYINEKESSYTEV [SMC4],3.2 ± 0.22,2.38 ± 0.1,2.43 ± 0.12,1.89 ± 0.11
SLSDELNLDEIVACELI [YJL039C/NUP192],2.75 ± 0.13,2.53 ± 0.1,,2.61 ± 0.14
VLDKMHARARGPRAVLT [RET1],2.88 ± 0.11,3.22 ± 0.11,3.15 ± 0.067,3.09 ± 0.087
TVNGQARDLATMTYEEV [FAS1],2.96 ± 0.08,3.15 ± 0.056,3.03 ± 0.065,2.95 ± 0.045
YGTENKDGEDIIFNYVP [CSL4],3.3 ± 0.14,3.21 ± 0.1,2.92 ± 0.085,3.12 ± 0.065
KAKSVVNDVEELGEIID [RMP1],3.4 ± 0.14,,2.8 ± 0.26,
IHSLIPVAKWFVKFITY [SIN4],2.7 ± 0.048,2.52 ± 0.04,2.77 ± 0.044,2.79 ± 0.04
NEEATPIPSSETKADGI [RRP6],3.04 ± 0.053,3.18 ± 0.058,3.04 ± 0.049,3.01 ± 0.04
PEESKGSFKYITARSAF [SWP82],2.85 ± 0.068,3.04 ± 0.076,3.1 ± 0.053,3.15 ± 0.06
KAPEQFIENFLTNDTFE [YML103C/NUP188],2.84 ± 0.12,3.16 ± 0.1,2.93 ± 0.12,3.02 ± 0.075
FNVDDVLKFTFTGEKPI [MED8],3.16 ± 0.094,3.02 ± 0.097,3.29 ± 0.048,2.98 ± 0.068
DAELMADEEEEIVDTYQ [ISW2],1.32 ± 0.15,1.3 ± 0.27,,1.24 ± 0.25
QLKNGLLEKYNTNELKE [MTR3],2.97 ± 0.055,2.69 ± 0.056,3.08 ± 0.05,2.65 ± 0.045
PSASLKLHHDLKLCLGD [YMR129W/POM152],3.06 ± 0.073,3.09 ± 0.07,2.92 ± 0.083,3.03 ± 0.054
KAKSNQTQREKAPLQPN [IRR1],3.07 ± 0.058,3.24 ± 0.052,3.09 ± 0.035,3.07 ± 0.05
KLSNIWMQRQLIKGDAG [SRB2],2.93 ± 0.23,1.16 ± 0.14,,1.25 ± 0.26
KFADGFLIHSGQPVNDF [RPS3],2.67 ± 0.059,3.07 ± 0.097,3.22 ± 0.074,3.06 ± 0.087
LLWTPKKLEITSDGALS [RPR2],2.09 ± 0.047,2.42 ± 0.048,2.61 ± 0.044,2.4 ± 0.034
YISKIGEKIDSNKPIFL [SWI1],3.02 ± 0.084,2.86 ± 0.06,3.01 ± 0.07,3.19 ± 0.09
LTLKEAELLVLKILKQV [PUP2],2.05 ± 0.29,2.4 ± 0.26,,1.63 ± 0.25
HMAKGLYYGSYRSPRVL [COB],1.6 ± 0.15,1.1 ± 0.12,1.3 ± 0.13,
IIVFGYPESISNELIEH [YDL088C/ASM4],2.12 ± 0.066,2.78 ± 0.049,2.63 ± 0.058,2.75 ± 0.054
HSSSVFKGTDFVHSVKK [SRB4],2.75 ± 0.073,2.93 ± 0.074,3.15 ± 0.048,2.99 ± 0.056
NSASSAPTPAAPGASVP [SWI1],3.04 ± 0.063,3.16 ± 0.056,3.21 ± 0.057,3.03 ± 0.055
HISKIIGLDTQQVEGKL [RPN6],2.95 ± 0.071,3.43 ± 0.093,2.9 ± 0.065,2.86 ± 0.059

Sequence,protein stability index (doa10∆),protein stability index (pdr5∆),protein stability index (san1∆),protein stability index (ubr1∆)
EHEEKEKERETNKKGIK [RPN2],3.32 ± 0.24,3.36 ± 0.1,3.33 ± 0.16,3.4 ± 0.25
KDAEYLRNYLTPNVREE [PUP1],3.09 ± 0.057,3.01 ± 0.075,3.14 ± 0.056,3.16 ± 0.081
KIRARSITLQGDVYDPE [SMC2],2.07 ± 0.065,2.19 ± 0.059,1.79 ± 0.16,1.86 ± 0.067
TVVTVVSTAKFSGKYLK [RPL22A],3.18 ± 0.12,3.13 ± 0.083,3.38 ± 0.17,2.96 ± 0.065
YLLTQQQIWKSPNFKNY [SOH1],1.73 ± 0.047,1.62 ± 0.05,1.18 ± 0.081,2.19 ± 0.03
QNTVPNVLNQINQIFSP [GAL11],2.63 ± 0.039,2.5 ± 0.033,2.4 ± 0.038,2.44 ± 0.032
ESIDVDMDAESNESQNG [SMC3],3.21 ± 0.094,2.91 ± 0.079,2.65 ± 0.066,3.27 ± 0.037
SILRKSSPEEPFMSYSP [SNF12],2.64 ± 0.074,2.74 ± 0.075,2.55 ± 0.088,2.79 ± 0.059
YSVLLESPLSVAIQQGD [YML103C/NUP188],1.23 ± 0.091,1.16 ± 0.063,1.2 ± 0.17,1.19 ± 0.077
LPLWHLLNRIPRMYHIG [POP1],3.06 ± 0.17,2.97 ± 0.15,2.06 ± 0.21,2.63 ± 0.15
LDRISSYTAFSRLTLLL [PRP8],1.86 ± 0.047,1.59 ± 0.044,1.93 ± 0.068,1.95 ± 0.035
PVSLLNSQLVGKPHFSL [PCI8],2.1 ± 0.084,2.37 ± 0.074,1.88 ± 0.21,2.21 ± 0.052
APSVPEFIYLTKVLQFA [SNF2],2.82 ± 0.1,2.5 ± 0.087,1.78 ± 0.12,2.91 ± 0.087
RSTDRDRVKVIECFKPG [CSL4],3.14 ± 0.14,3.1 ± 0.2,3.26 ± 0.1,2.99 ± 0.088
ADVFTDDDLFETLVLSY [YCG1],2.46 ± 0.09,2.65 ± 0.056,2.85 ± 0.064,2.06 ± 0.041
DMFEMSDEEENNNNKSI [SSN2],,3.19 ± 0.18,3.32 ± 0.17,3.04 ± 0.079
FISNLPNVSDKYYLEES [NUT1],2.16 ± 0.098,1.49 ± 0.094,,1.27 ± 0.076
ALEFVSLLLSSVKESTG [SRB4],1.26 ± 0.046,1.61 ± 0.043,1.4 ± 0.11,1.24 ± 0.048
YITLKATFLKDDLPYYV [QCR2],2.42 ± 0.047,2.17 ± 0.049,2.51 ± 0.054,2.44 ± 0.039
KRLLYTRRFVNVTLVNG [RPS30A],2.03 ± 0.051,1.44 ± 0.04,1.62 ± 0.099,1.91 ± 0.059
ARSGLRIGRIEDVTPVP [RPS14A],2.69 ± 0.11,2.91 ± 0.12,2.92 ± 0.097,2.85 ± 0.072
YISFIKDDRFVPVRKFK [RPN2],2.41 ± 0.048,2.82 ± 0.039,2.96 ± 0.041,2.85 ± 0.031
TLISENWWHSEFEIPVS [BRR2],1.84 ± 0.11,1.59 ± 0.058,1.8 ± 0.1,1.25 ± 0.059
ASDGGLYVPHSENRFPG [RPL5],2.19 ± 0.1,2.61 ± 0.079,2.93 ± 0.095,2.92 ± 0.057
KNPKFSNAFYSVLRDTL [SMC4],2.1 ± 0.084,2.34 ± 0.11,2.13 ± 0.093,2.13 ± 0.11
KNVGNKSPEQCILRFLQ [SWI3],2.15 ± 0.062,2.67 ± 0.051,2.31 ± 0.083,1.84 ± 0.033

Sequence,protein stability index (doa10∆),protein stability index (pdr5∆),protein stability index (san1∆),protein stability index (ubr1∆)
HGQKGVCGIIVKQEDMP [RET1],2.93 ± 0.24,1.35 ± 0.16,,
GAHLLEFQPSGNVTELY [PRE5],2.54 ± 0.12,2.99 ± 0.076,2.92 ± 0.12,3.02 ± 0.11
LNAKYQSLGLDDLQKFN [ISW2],3.03 ± 0.066,3 ± 0.061,2.74 ± 0.049,2.7 ± 0.044
RIFAIAFTRKQANQVKR [RPS1A],1.59 ± 0.018,1.66 ± 0.019,1.99 ± 0.031,1.98 ± 0.02
RLTGSLLAHKVADEEAN [RPC37],1.22 ± 0.057,1.32 ± 0.068,1.16 ± 0.12,1.06 ± 0.056
VMIAEIPTLAIDSVEVE [RPB3],2.3 ± 0.18,2.65 ± 0.11,,
ADAKAFLDSMAQKYASI [FAS2],3.07 ± 0.083,3.19 ± 0.086,3.12 ± 0.047,2.94 ± 0.049
TGRLFQVEYALEAIKQG [PRE5],2.94 ± 0.11,2.5 ± 0.15,3.16 ± 0.17,2.26 ± 0.12
LNWFRTTNMNVNNCIWA [RGR1],2.22 ± 0.057,1.34 ± 0.045,1.15 ± 0.12,1.28 ± 0.036
VGLVMFSQFWYWFPLAH [RPN2],1.52 ± 0.078,1.39 ± 0.072,1.66 ± 0.17,1.41 ± 0.051
LPLPPSVEWMKVSPSMC [SIN4],1.75 ± 0.055,1.71 ± 0.05,1.69 ± 0.09,1.55 ± 0.063
QNGQQPPTTSNLIIFLY [YML103C/NUP188],2.83 ± 0.05,2.78 ± 0.04,2.94 ± 0.034,3.06 ± 0.035
YLQETAISGKKTTYYYY [RPC82],2.77 ± 0.079,3.02 ± 0.14,2.84 ± 0.057,3.07 ± 0.075
YGYWFDCRMGNFYIQYD [AAR2],2.51 ± 0.048,2.08 ± 0.048,1.93 ± 0.081,2.49 ± 0.034
PQDYVLERVKRIMEKSV [YML031W/NDC1],2.6 ± 0.059,2.66 ± 0.045,2.55 ± 0.087,2.12 ± 0.041
IAIIKDTSDIIVDPTAE [RRP46],1.86 ± 0.044,1.92 ± 0.047,1.71 ± 0.078,1.61 ± 0.046
GTTATGTGLFGQQTAQP [YGR119C/NUP57],2.91 ± 0.16,2.76 ± 0.079,3.02 ± 0.18,3 ± 0.14
KVDINADSAVNRQTLMF [PRP28],3.32 ± 0.06,3.32 ± 0.072,3.08 ± 0.055,3.17 ± 0.052
DNVSFIEEAKSIRRQDY [REC8],2.85 ± 0.12,3.06 ± 0.11,3.28 ± 0.09,3.15 ± 0.08
ARIFEFPKTTVAALRFT [RPL18A],1.94 ± 0.11,1.67 ± 0.076,2 ± 0.19,1.79 ± 0.098
GHVKPVRCVNCSKSIPK [RPS26A],2.8 ± 0.1,2.7 ± 0.11,2.16 ± 0.19,3.06 ± 0.14
TMTYEEVAKRLVELMFI [FAS1],1.79 ± 0.067,2.22 ± 0.071,2.52 ± 0.084,2.14 ± 0.069
DWFTYSYFYRRIHVNPS [BRR2],1.86 ± 0.047,1.28 ± 0.038,1.53 ± 0.057,1.52 ± 0.029
EIDPLTGMPISNDPDVN [BRN1],,,2.87 ± 0.13,3.03 ± 0.085
GSEEKAFVPKKRKTNII [SRP54],3.12 ± 0.069,3.2 ± 0.077,2.88 ± 0.067,3.02 ± 0.06
